Test results: patent US20050164345A1, “Synthesis of human procollagens and collagens in recombinant DNA systems” (priority 1992, published 2005)
Read-outs that look alike come from different tables or passages of the source.

B1: proα1 chains of type III procollagen: type III procollagen expressed in insect cells without recombinant prolyl 4-hydroxylase (protein, UniProt P02461 24-1466, looked up)
pro-form: QQEAVEGGCSHLGQSYADRDVWKPEPCQICVCDSGSVLCDDIICDDQELDCPNPEIPFGECCAVCPQPPTAPTRPPNGQGPQGPKGDPGPPGIPGRNGDPGIPGQPGSPGSPGPPGICESCPTGPQNYSPQYDSYDVKSGVAVGGLAGYPGPAGPPGPPGPPGTSGHPGSPGSPGYQGPPGEPGQAGPSGPPGPPGAIGPSGPAGKDGESGRPGRPGERGLPGPPGIKGPAGIPGFPGMKGHRGFDGRNGEKGETGAPGLKGENGLPGENGAPGPMGPRGAPGERGRPGLPGAAGARGNDGARGSDGQPGPPGPPGTAGFPGSPGAKGEVGPAGSPGSNGAPGQRGEPGPQGHAGAQGPPGPPGINGSPGGKGEMGPAGIPGAPGLMGARGPPGPAGANGAPGLRGGAGEPGKNGAKGEPGPRGERGEAGIPGVPGAKGEDGKDGSPGEPGANGLPGAAGERGAPGFRGPAGPNGIPGEKGPAGERGAPGPAGPRGAAGEPGRDGVPGGPGMRGMPGSPGGPGSDGKPGPPGSQGESGRPGPPGPSGPRGQPGVMGFPGPKGNDGAPGKNGERGGPGGPGPQGPPGKNGETGPQGPPGPTGPGGDKGDTGPPGPQGLQGLPGTGGPPGENGKPGEPGPKGDAGAPGAPGGKGDAGAPGERGPPGLAGAPGLRGGAGPPGPEGGKGAAGPPGPPGAAGTPGLQGMPGERGGLGSPGPKGDKGEPGGPGADGVPGKDGPRGPTGPIGPPGPAGQPGDKGEGGAPGLPGIAGPRGSPGERGETGPPGPAGFPGAPGQNGEPGGKGERGAPGEKGEGGPPGVAGPPGGSGPAGPPGPQGVKGERGSPGGPGAAGFPGARGLPGPPGSNGNPGPPGPSGSPGKDGPPGPAGNTGAPGSPGVSGPKGDAGQPGEKGSPGAQGPPGAPGPLGIAGITGARGLAGPPGMPGPRGSPGPQGVKGESGKPGANGLSGERGPPGPQGLPGLAGTAGEPGRDGNPGSDGLPGRDGSPGGKGDRGENGSPGAPGAPGHPGPPGPVGPAGKSGDRGESGPAGPAGAPGPAGSRGAPGPQGPRGDKGETGERGAAGIKGHRGFPGNPGAPGSPGPAGQQGAIGSPGPAGPRGPVGPSGPPGKDGTSGHPGPIGPPGPRGNRGERGSEGSPGHPGQPGPPGPPGAPGPCCGGVGAAAIAGIGGEKAGGFAPYYGDEPMDFKINTDEIMTSLKSVNGQIESLISPDGSRKNPARNCRDLKFCHPELKSGEYWVDPNQGCKLDAIKVFCNMETGETCISANPLNVPRKHWWTDSSAEKKHVWFGESMDGGFQFSYGNPELPEDVLDVHLAFLRLLSSRASQNITYHCKNSIAYMDQASGNVKKALKLMGSNEGEFKAEGNSKFTYTVLEDGCTKHTGEWSKTVFEYRTRKAVRLPIVDIAPYDIGGPDQEFGVDVGPVCFL
modifications: pro-form
notes: type III procollagen expressed in insect cells without recombinant prolyl 4-hydroxylase

Assays:
[1] = protease digestion and thermal stability of recombinant type II human collagen from insect cells; format: physicochemical; details: expressed in recombinant insect cells
Protocol: Purification and analysis of Collagen Types I and II. Collagens types I and II were purified as described supra.
The thermal stability of the recombinant type II human collagen expressed from the recombinant insect cells was measured and compared with native type I human collagen. […] The Tm of the recombinant type II collagen was up to about 40° C.

[2] = CD spectrum analysis of purified recombinant type III collagen; format: physicochemical
Protocol: Type III procollagen was expressed in High Five cells cultured either as monolayers or in suspension in shaker flasks. The cells were harvested 72 h after infection, homogenized in a buffer containing 0.1% Triton X-100 and centrifuged, and the supernatant of the cell homogenate was passed through a DEAE cellulose column to remove nucleic acids. The flow through fractions containing the type III procollagen were pooled and digested with pepsin. This converted the type III procollagen to type III collagen and digested most of the noncollagenous proteins. The type III collagen was then concentrated by salt precipitation, solubilized and treated with pepsin as above. The type III collagen was finally separated from pepsin and other remaining contaminants by gel filtration on a Sephacryl S 500-HR column. The fractions containing the type III collagen were pooled, dialyzed and lyophilized. The purified type III collagen was analyzed by 5% SDS-PAGE under reducing (FIG. 9, lane 2) and nonreducing (FIG. 9, lane 3) conditions. […] Amino acid and CD spectrum analysis were performed on the purified type III collagen. The amino acid composition of the recombinant type III obtained corresponded well with the amino acid composition reported for human type III collagen. […] The melting temperature of the recombinant type III collagen determined by CD spectrum analysis was 40° C.

[3] = thermal stability of type III collagen produced in insect cells, trypsin/chymotrypsin digestion after heating to various temperatures; format: physicochemical
Protocol: Other aliquots were studied by a radioimmuno-assay for the trimeric N-propeptide of human type III procollagen (Farmos Diagnostica) and a colorimetric method for 4-hydroxyproline (Kivirikko et al., Anal. Biochem. 19: 249-255 (1967)). Still further aliquots were digested with pepsin for 1 h at 22° C. (Bruckner et al., Anal. Biochem. 110: 360-368 (1981)), and the thermal stability of the pepsin-resistant recombinant type III collagen was measured by rapid digestion with a mixture of trypsin and chymotrypsin.
The thermal stability of the type III collagen expressed under different cell culture conditions was studied by using digestion with a mixture of trypsin and chymotrypsin after heating to various temperatures (Bruckner, et al., Anal. Biochem. 110: 360-368 (1981)). High Five cells were infected with viruses coding for the proα1 (III) chains and the a and β subunits of human prolyl 4-hydroxylase. The cells were harvested 72 h after infection, homogenized in a buffer containing 0.2% Triton X-100 and centrifuged. In these experiments, ascorbate was either added daily to the cell culture medium as usual or omitted during the infection. The Triton X-100 soluble proteins were first digested with pepsin for 1 h at 22° C. to convert type III procollagen to type III collagen (Pihlajaniemi et al., EMBO J. 6: 643-649 (1987)), and the trypsin/chymotrypsin digestion was then performed for aliquots of the pepsin-treated samples. The samples were then electrophoresed on 8% SDS-PAGE and analyzed by Coomassie staining. FIG. 11 provides the results of this thermal stability for a variety of collagen products. As set forth in panel A, the cells were infected only with the virus coding for the proα1 (III) chains, and ascorbate was omitted from the culture medium; panel B, the cells were infected only with the virus coding for the proα1 (III) chains, and ascorbate was present in the culture medium as usually; panel C, the cells were coinfected with viruses coding for the proα1 (III) chains, and the α and β subunits of prolyl 4-hydroxylase, but ascorbate was omitted from the culture medium; and panel D, the cells were infected with the three viruses, and ascorbate was present in the culture medium. […] The arrows show the position of the α1 (III) chains. […] (FIG. 11A). […] In contrast, when the proα1 (III) chains were produced in the presence of both prolyl 4-hydroxylase and ascorbate, the Tm of type III collagen was increased considerably, being at about 38-40° C. (FIG. 11D).

prolyl 4-hydroxylase = assay: Km values of prolyl 4-hydroxylase, assay based on decarboxylation of 2-oxo[1-14C]glutarate; format: biochemical, human; details: other substrates held constant
Protocol: When the time course of protein expression was examined, Sf9 cells infected with recombinant viruses were labeled with [^35S]methionine (10 μCi/μl; Amersham; 1 Ci=[…]) for 2 hours at various time points between 24 and 50 hours after infection and collected for analysis by SDS/10% PAGE. To determine the maximal accumulation of recombinant protein, cells were harvested at various times from 24 to 96 hours after infection and analyzed on by SDS/10% PAGE. Both the 0.1% Triton X-100- and 1% SDS-soluble fractions of the cells were analyzed. Prolyl 4-hydroxylase activity was assayed by a method based on the decarboxylation of 2-oxo[1-^14C^−]glutarate (Kivirikko et al., Methods in Enzymology 82: 245-304 (1982)). The Km values were determined by varying the concentrations of one substrate in the presence of fixed concentration of the second, while the concentrations of the other substrates were held constant (Myllyla et al., Eur. J. Biochem. 80: 349-357 (1977)). Protein disulfide-isomerase activity of the β subunit was measured by glutathione: insulin transhydrogenase assay (Carmichael et al., J. Biol. Chem. 252: 7163-7167 (1977)). Western blot analysis was performed using a monoclonal antibody, 5B5, to the β subunit of human prolyl 4-hydroxylase (Hoyhtya et al., Eur. J. Biochem. 141: 477-482 (1984)). Prolyl 4-hydroxylase was purified by a procedure consisting of poly (L-proline) affinity chromatography, DEAE-cellulose chromatography, and gel filtration (Kivirikko et al., Methods in Enzymology 144: 96-114 (1987)).
Table 2 presented data on the enzymic activity of the recombinant enzyme. The Km values were determined by varying the concentration of one substrate in the presence of fixed concentrations of the second while the concentration of the other substrates were held constant.

[4] = substrate 2-oxoglutarate, read-out: Km value, 2-oxoglutarate
[5] = substrate (Pro—Pro-Gly)10, read-out: Km value, (Pro—Pro-Gly)10
[6] = substrate Fe^+2, read-out: Km value, Fe^+2
[7] = substrate ascorbate, read-out: Km value, ascorbate

Molecule | Km (prolyl 4-hydroxylase; [4]) [µM] | Km (prolyl 4-hydroxylase; [5]) [µM] | Km (prolyl 4-hydroxylase; [6]) [µM] | Km (prolyl 4-hydroxylase; [7]) [µM] | also measured
recombinant type II collagen: recombinant type II human collagen expressed from recombinant insect cells | – | – | – | – | Tm of the recombinant type II collagen [1]: up to 40 °C; trypsin and chymotrypsin digestion [1]: resistance to trypsin and chymotrypsin digestion
recombinant type III collagen: recombinant human type III collagen produced in insect cells, pepsin-converted from type III procollagen | – | – | – | – | Tm of the triple helices by CD spectra compared with authentic type III collagen ([2]; purified human type III collagen produced in insect cells): virtually identical; melting temperature determined by CD spectrum analysis ([2]; purified type III collagen from High Five cells): 40 °C; effect on the thermal stability ([3]; High Five cells, either ascorbate or prolyl 4-hydroxylase present without the other (FIG. 11B and 11C)): virtually no increasing effect; Tm of type III collagen ([3]; High Five cells, proα1 (III) chains expressed without prolyl 4-hydroxylase and ascorbate (FIG. 11A)): 32-34 °C; Tm of type III collagen ([3]; High Five cells, proα1 (III) chains produced in the presence of both prolyl 4-hydroxylase and ascorbate (FIG. 11D)): 38-40 °C
α582β2: recombinant human prolyl 4-hydroxylase tetramer from Sf9 cells infected with α58 virus and β virus | 22 | 18 | 4 | 330 | –
α592β2: recombinant human prolyl 4-hydroxylase tetramer from Sf9 cells infected with α59 virus and β virus | 25 | 18 | 4 | 330 | –
B1 | – | – | – | – | Tm of the triple helices, lower than procollagen produced in the presence of recombinant prolyl 4-hydroxylase ([3]; insect cells, without recombinant prolyl 4-hydroxylase): about 6 °C
